Data reported in publication PMC6947844 (Antibody therapeutics, 2019).

Target: Human EGFRvIII extracellular domain (ECD) C-terminal His-tagged protein (Homo sapiens, deletion of amino acids 6 to 273)
Assay: BLI

B1: monoclonal antibody 40H3 (antibody, V domains shown)
VH: QVQLKQSGPGLVQPSQSLSITCTVSGFSLTNYGIHWLRQSPGKGLEWLGMMWRGGGTDYNAAFISRLTITKDTSKSQVFFRMNNLQTNDTAIYYCARKGVGMGLGYWGQGTSVTVSS
VL: DIQMTQSPASQSASLGESVTITCLASQTIGTWVAWYQQKPGRSPQLLIYGATNLADGVPSRFSGSGSGTKFSFKISSLQAEDFVSYYCQQLYSNPYTFGGGTKLEIK
Kd: ~0.27 nM
